3 molecules from patent US20260250420A1 (SICHUAN KELUN BIOTECH BIOPHARMACEUTICAL, published 2026) can be followed below.

In assay [1] the target is T1, human PTK7 on cells (tumor cells endogenously expressing PTK7); CHO-hPTK7, CHO-S-hPTK7 and 293T-hPTK7 … (human, UniProt Q13308 31-1070).
T1 construct: whole, on cells; The cell line of each value is named under assay; also called H1299; H358
T1 sequence (looked up): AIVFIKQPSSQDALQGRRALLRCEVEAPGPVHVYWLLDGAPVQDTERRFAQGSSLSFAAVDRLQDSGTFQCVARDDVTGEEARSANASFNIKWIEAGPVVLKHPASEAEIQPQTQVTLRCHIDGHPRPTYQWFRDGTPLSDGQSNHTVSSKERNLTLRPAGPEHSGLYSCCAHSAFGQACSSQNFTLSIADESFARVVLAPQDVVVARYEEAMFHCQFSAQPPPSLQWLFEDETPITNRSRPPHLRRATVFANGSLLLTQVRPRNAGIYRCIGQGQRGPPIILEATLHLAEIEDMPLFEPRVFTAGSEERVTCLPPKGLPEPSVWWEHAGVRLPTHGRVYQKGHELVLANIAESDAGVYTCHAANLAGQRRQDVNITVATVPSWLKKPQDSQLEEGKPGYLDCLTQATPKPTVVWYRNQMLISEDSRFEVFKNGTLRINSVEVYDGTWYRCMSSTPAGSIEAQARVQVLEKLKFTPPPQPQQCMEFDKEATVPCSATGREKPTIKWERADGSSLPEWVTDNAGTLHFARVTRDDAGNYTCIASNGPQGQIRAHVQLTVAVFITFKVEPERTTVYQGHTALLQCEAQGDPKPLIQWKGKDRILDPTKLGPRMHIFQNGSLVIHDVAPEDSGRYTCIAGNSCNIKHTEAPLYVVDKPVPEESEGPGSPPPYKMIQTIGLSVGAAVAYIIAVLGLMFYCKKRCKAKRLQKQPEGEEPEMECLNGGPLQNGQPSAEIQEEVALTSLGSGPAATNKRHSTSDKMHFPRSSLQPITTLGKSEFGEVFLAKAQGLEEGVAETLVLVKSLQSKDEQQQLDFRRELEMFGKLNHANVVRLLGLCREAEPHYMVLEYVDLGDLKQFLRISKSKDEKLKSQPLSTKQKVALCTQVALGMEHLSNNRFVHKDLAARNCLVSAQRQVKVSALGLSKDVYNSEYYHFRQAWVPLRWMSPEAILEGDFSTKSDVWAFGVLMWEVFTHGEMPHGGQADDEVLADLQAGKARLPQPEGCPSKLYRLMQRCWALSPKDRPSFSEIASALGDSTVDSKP
The assay can be described thus: flow cytometry on T47D cells. The source says:
(§1) A flow cytometer (Beckman, Cytoflex) was used for detecting the affinity of the anti-human PTK7 chimeric and humanized antibodies with human non-small cell lung cancer cells H1299, human lung adenocarcinoma cells H1975, human breast cancer cells T47D, human ovarian cancer cells OVCAR-3 (all purchased from NANJING COBIOER BIOSCIENCES CO., LTD) and CHO-hPTK7 overexpression cells.
(§2) The adherent cells were digested by using a pancreatin (Gibco) solution; a proper amount of cells were counted and taken, washed twice by using 1×PBS, and re-suspended in a 1% BSA solution; and then the cells were transferred into a 96-well deep plate at a density of 50 μl/well; a candidate antibody was diluted by using 1% BSA, then 50 μl of diluted antibody was added into the deep plate containing the cells, and incubated for 40 min at 4° C.; the cells were washed twice by using PBS, then 50 μl of diluted secondary antibody was added into each well, uniformly mixed, and incubated for 30 min at 4° C.; and the cells were washed twice by using PBS, then re-suspended in 400 μl of PBS, and subjected to examination by flow cytometer.
In general terms: In flow cytometry, cells or beads pass a laser one at a time.

Assay [2] addresses T1, human PTK7 on cells (tumor cells …). Kind of assay: flow cytometry on H1299 cells.
Source text: as §1, §2

Assay [3] has the same target. The assay can be described thus: flow cytometry on H1975 cells.
Source text: as §1, §2

Assay [4] deals with T2, monkey PTK7 protein (extracellular sequence of monkey PTK7 with C-terminal 6×His tag) (monkey).
T2 chain: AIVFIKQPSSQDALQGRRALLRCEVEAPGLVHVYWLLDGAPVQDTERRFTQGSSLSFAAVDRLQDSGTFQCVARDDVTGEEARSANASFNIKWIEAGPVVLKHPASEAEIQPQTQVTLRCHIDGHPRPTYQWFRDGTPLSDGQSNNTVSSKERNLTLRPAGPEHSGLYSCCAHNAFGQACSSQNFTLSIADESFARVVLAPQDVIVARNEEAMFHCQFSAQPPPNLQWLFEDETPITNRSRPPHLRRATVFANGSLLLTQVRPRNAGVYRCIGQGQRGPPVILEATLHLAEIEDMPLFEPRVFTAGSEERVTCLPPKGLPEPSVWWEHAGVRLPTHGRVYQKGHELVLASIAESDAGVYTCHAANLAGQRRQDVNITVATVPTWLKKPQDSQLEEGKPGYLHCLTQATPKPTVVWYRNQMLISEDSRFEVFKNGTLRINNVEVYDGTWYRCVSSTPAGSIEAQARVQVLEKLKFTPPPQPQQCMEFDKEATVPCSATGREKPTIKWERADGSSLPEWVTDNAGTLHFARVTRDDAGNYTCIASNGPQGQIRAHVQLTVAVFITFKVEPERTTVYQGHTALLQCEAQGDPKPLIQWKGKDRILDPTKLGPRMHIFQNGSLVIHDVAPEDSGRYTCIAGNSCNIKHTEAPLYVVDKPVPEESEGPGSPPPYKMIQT
The assay can be described thus: BLI (ForteBio), antibody on Protein A sensor, monkey PTK7 protein in solution. An excerpt:
The dynamic affinity of the control Hu24 and candidate antibodies 64A10HZ, 101A6HZ, 4E12HZ and 19C2HZ with human PTK7-His was detected by using ForteBio (Pall life sciences).
ELISA and ForteBio were adopted to detect binding of the anti-human PTK7 chimeric and humanized antibodies to the monkey, mouse and rat PTK7 proteins.
A general note: In BLI a coated tip is dipped into the sample, and binding shifts an interference pattern.

B1: 64A10HZ (anti-human PTK7 humanized antibody) (antibody, human IgG1, kappa, V domains shown)
VH: QVQLQESGPGLVKPSETLSLTCTVSGFSLTSYGVYWVRQPPGKGPEWLGVIWTSGNTNYNPSLKSRLTISKDNSKNQVSLKLSSVTAADTAVYYCVKHDGGNYVGVMNYWGQGTLVTVSS
VL: EIVMTQSPDFQSVTPKEKVTITCRASQSISDYLHWYQQKPDQSPKLLIKYASQSISGVPSRFSGSGSGSDFTLTINSLEAEDAATYYCQNGHSFPPTFGQGTKLEIKR
notes: Human IgG1 heavy chain constant region and human Kappa light chain constant region; expressed in CHO-S cells
Usually EC50 stands for the concentration at which the effect is half-maximal. Broadly, the Kd is a measure of binding affinity in units of concentration. Regarding B1, the concentration giving a half-maximal response (EC50) in assay [1] was determined as 0.217 µg/mL; in assay [2], 0.0475 µg/mL; in assay [3], 0.0767 µg/mL. Moreover, the affinity in assay [4], expressed as Kd, was 26.7 nM.

B2: 101A6HZ (anti-human PTK7 humanized antibody) (antibody, human IgG1, kappa)
heavy: not shown
light: DIVMTQSPDSLAVSLGERATINCKASQDVGSAVIWYQQKPGQSPKLLIYWASTRHTGVPDRFSGSGSGTDFTLTISSLQAEDVAVYYCQQYSSYPLTFGQGTKLEIKRTVAAPSVFIFPPSDEQLKSGTASVVCLLNNFYPREAKVQWKVDNALQSGNSQESVTEQDSKDSTYSLSSTLTLSKADYEKHKVYACEVTHQGLSSPVTKSFNRGEC
As for B2, the EC50 in assay [1] was 0.0968 µg/mL; in assay [2] it was 0.0843 µg/mL; in assay [3], 0.178 µg/mL. In assay [4], this molecule came in with a Kd of 134 nM.

B3: Hu24 (PTK7 control antibody, taken from Hu24 in the Patent CN201580030255) (antibody)
chain 1: QVQLVQSGPEVKKPGASVKVSCKASGYTFTDYAVHWVRQAPGKRLEWIGVISTYNDYTYNNQDFKGRVTMTRDTSASTAYMELSRLRSEDTAVYYCARGNSYFYALDYWGQGTSVTVSS
chain 2: EIVLTQSPATLSLSPGERATLSCRASESVDSYGKSFMHWYQQKPGQAPRLLIYRASNLESGIPARFSGSGSGTDFTLTISSLEPEDFAVYYCQQSNEDPWTFGGGTKLEIK
For the molecule B3, the figures for the EC50 in assay [1], in assay [2] and in assay [3] were 0.0861 µg/mL, 0.0649 µg/mL and 0.134 µg/mL, respectively. This molecule also registered a dissociation constant (Kd) in assay [4] of 11.9 nM.
